# T1: murine short form ObR (clone famj5312), expressed on COS cells (mouse, UniProt P48356 23-889)
# T1 construct: also called mouse ObR; mouse short form
# T1 sequence: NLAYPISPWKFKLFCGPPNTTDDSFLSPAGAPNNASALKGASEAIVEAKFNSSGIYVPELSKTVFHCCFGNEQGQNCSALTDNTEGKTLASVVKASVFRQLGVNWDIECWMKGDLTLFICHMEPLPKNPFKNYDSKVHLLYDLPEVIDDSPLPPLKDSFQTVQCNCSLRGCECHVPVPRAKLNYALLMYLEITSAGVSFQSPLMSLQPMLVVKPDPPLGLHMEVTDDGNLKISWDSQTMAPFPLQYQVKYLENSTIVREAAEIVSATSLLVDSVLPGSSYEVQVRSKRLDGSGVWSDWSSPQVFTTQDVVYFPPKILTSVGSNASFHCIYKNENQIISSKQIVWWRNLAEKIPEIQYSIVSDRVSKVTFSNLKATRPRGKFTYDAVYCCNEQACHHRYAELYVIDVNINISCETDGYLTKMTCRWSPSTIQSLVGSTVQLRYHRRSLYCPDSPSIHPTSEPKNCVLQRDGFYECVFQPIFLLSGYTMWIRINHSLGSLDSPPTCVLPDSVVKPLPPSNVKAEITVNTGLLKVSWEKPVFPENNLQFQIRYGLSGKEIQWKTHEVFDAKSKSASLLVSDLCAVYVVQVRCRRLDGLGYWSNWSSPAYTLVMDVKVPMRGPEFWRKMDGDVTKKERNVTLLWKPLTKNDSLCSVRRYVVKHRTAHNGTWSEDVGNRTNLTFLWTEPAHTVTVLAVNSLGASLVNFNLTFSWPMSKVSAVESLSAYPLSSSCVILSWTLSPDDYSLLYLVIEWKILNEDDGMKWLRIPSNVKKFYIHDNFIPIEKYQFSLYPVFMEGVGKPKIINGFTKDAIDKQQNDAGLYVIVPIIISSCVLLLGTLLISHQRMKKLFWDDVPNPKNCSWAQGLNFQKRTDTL
# T2: human ObR long form, expressed on transfected cells (human, UniProt P48357 21-1165)
# T2 construct: also called human long form; long form of ObR
# T2 sequence: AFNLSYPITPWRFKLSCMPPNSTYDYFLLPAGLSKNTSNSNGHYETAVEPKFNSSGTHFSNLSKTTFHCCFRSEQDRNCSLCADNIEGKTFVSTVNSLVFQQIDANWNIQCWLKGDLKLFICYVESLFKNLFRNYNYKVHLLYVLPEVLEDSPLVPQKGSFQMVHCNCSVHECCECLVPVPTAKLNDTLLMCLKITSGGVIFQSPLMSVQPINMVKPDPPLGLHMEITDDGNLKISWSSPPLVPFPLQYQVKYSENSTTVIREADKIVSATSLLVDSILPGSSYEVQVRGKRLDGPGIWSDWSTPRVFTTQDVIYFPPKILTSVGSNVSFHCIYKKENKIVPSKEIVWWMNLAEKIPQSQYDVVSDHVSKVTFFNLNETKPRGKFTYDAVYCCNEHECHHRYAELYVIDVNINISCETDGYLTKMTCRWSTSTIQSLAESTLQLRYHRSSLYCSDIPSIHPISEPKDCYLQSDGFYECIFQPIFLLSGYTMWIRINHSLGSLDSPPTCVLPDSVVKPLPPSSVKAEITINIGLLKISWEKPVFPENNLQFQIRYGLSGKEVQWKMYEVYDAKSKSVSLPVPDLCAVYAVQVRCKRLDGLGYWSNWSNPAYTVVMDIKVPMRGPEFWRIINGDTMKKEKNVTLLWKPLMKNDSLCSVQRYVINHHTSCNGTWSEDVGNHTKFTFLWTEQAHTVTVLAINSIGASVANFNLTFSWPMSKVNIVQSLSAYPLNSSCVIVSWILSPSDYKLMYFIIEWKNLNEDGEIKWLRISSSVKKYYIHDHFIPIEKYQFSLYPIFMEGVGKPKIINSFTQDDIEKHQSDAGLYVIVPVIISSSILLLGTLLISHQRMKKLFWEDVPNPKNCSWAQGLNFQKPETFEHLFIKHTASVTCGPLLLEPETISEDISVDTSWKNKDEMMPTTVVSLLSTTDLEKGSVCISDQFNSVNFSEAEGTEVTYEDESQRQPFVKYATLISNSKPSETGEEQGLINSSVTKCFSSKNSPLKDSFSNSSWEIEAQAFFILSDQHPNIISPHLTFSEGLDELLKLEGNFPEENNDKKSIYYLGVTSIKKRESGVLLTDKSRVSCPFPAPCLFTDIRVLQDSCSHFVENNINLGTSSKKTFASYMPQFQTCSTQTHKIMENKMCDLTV
# T3: Ob receptor in mouse choroid plexus tissue (mouse, UniProt P48356 23-889)
# T3 construct: Native receptor in quartered mouse brain
# T3 sequence: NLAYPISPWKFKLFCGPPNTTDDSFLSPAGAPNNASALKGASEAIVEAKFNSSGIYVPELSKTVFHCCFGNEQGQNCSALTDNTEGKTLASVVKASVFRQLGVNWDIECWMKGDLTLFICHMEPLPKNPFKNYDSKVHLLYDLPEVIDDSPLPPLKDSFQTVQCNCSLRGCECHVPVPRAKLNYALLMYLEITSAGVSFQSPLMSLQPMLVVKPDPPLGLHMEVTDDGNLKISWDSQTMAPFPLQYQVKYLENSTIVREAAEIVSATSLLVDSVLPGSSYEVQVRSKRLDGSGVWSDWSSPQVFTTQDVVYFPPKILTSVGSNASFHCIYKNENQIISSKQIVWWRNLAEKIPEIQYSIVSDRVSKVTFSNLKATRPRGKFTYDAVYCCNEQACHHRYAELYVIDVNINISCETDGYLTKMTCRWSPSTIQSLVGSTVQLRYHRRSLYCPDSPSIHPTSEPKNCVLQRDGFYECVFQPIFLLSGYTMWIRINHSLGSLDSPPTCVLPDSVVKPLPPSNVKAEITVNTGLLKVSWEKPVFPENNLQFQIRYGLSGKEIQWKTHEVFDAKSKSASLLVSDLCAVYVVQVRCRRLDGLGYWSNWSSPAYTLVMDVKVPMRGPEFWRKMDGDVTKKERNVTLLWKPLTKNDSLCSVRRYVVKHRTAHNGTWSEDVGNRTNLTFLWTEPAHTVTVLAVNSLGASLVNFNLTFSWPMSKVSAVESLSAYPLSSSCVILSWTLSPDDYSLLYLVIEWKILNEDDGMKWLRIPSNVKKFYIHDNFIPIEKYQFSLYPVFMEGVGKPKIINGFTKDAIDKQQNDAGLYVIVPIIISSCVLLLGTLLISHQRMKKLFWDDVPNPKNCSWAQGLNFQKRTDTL
# What was measured:
# [1] = molecular target: human ObR long form, expressed on transfected cells (human) (UniProt P48357); test: cell-based or functional assay
# [2] = molecular target: T1, murine short form ObR (clone famj5312), …; test: Scatchard transformation of AP-OB binding to transfected COS cells
# Procedure: (§1) FIG. 2B-1 Binding isotherm and Scatchard analysis of the interaction of AP-Ob and ObR. COS-7 cells transfected with the obR cDNA were incubated with various concentrations of the AP-Ob (mouse) fusion protein FIG. 2B-2. Scatchard transformation is shown as an inset. Paragraph beginning at page 16, line 3, please replace the paragraph with the following text:
# (§2) After transient transfection of the ObR clone into COS cells, strong binding of 1 nM murine AP-Ob is detected (relative to mock transfected COS cells or ObR transfected COS cells incubated with unfused AP) (FIG. 2A). […] A fusion between AP and human Ob also binds mouse ObR with high affinity, as does a fusion protein with mouse leptin at the N-terminus and AP at the C-terminus (Ob-AP).
# (§3) To determine whether ObR has the ability to recruit the cellular signaling machinery, COS cells were transiently transfected with expression vectors for the two representative forms of ObR, mouse short form (also corresponding to a mutated form detected in db/db mice) and human long form. Two days after transfection, cells were incubated in 1 nM human or mouse alkaline phosphatase-OB, and cell surface expression of ObR was detected as indicated by specific binding of the alkaline phosphatase-OB (AP-OB) fusion protein.
# [3] = molecular target: T2, human ObR long form, expressed on …; test: as above
# Procedure: as §1, §2, §3
# [4] = molecular target: T1, murine short form ObR (clone famj5312), …; test: 1 nM AP-OB on transfected COS cells; reference human long form ObR; laid to surface expression by the filing
# Procedure: COS-1, H-35 and Hep3B cells were transfected with plasmid DNA by the DEAE-dextran method (Lopata et al., 1989, *Nucleic Acids Res.* 12:5707–5717); HepG2 cells by the calcium phosphate method (Graham et al., 1973, *Virology* 52:456–461); and COS-7 cells by the lipofectamine method. Subcultures of COS cells were maintained for 16 hours in serum-free medium prior to the activation of STAT proteins by treatment with cytokines for 15 minutes. DNA binding by STAT proteins was determined by EMSA on whole cell extracts as described in Sadowski et al. (1993, *Science* 26:1739–1744). […] CAT activities were quantitated by testing serial dilutions of cell extracts, normalized to the expression of the cotransfected marker plasmid pIE-MUP (Morella et al., 1995, *J. Biol. Chem.* 270:[…]), and are expressed relative the value of the untreated control cultures in each experimental series (defined as =1.0). Quantitative cell surface binding of the AP-OB fusion protein (Section 6) was done essentially as outlined by Cheng and Flanagan (1994, Cell 79:157–168).
# To determine whether ObR has the ability to recruit the cellular signaling machinery, COS cells were transiently transfected with expression vectors for the two representative forms of ObR, mouse short form (also corresponding to a mutated form detected in db/db mice) and human long form. […]
# [5] = molecular target: T3, Ob receptor in mouse choroid plexus …; test: AP staining of quartered mouse brain tissue
# Procedure: (§4) In Situ Fusion Protein Binding. Quartered mouse brains, isolated choroid plexus, cells, and cell lines were rinsed once with HBHA (Hank's balanced salt solution with 0.5 mg/ml BSA, 0.1% NaN_3, 20 mM HEPES [pH 7.0]) in 12-well plates. Tissue was then incubated with tissue culture supernatants containing AP-Ob fusion, Ob-AP fusion, or control supernatants (i.e., supernatants containing unfused AP only, containing AP-OB or OB-AP fusion proteins plus 80-fold molar excess of *E. coli*-derived recombinant OB, or supernatants from mock-transfected COS cells), for 75 minutes with gentle rotation, at room temperature. Samples were then treated as described previously (Cheng, H. J. and Flanagan, J. G., 1994, *Cell* 79:157–168).
# [6] = molecular target: T1, murine short form ObR (clone famj5312), …; test: AP activity bound to COS cells transfected with the ObR clone
# Procedure: as §4, §2
molecule,measurement,setting,value
"leptin (Section 16, species not stated) (ligand)","pIL6RE-SEAP reporter activity in 293 cells, 100 ng/ml leptin for 24 hours",[1],8 fold
"mouse AP-Ob fusion protein (ligand, UniProt P41160 22-167, looked up, not shown: large carriers, mature; AP at the N-terminus, predicted mature Ob at the C-terminus; used as COS-7 conditioned medium; also called murine AP-Ob; AP-Ob (mouse)) VPIQKVQDDTKTLIKTIVTRINDISHTQSVSAKQRVTGLDFIPGLHPILSLSKMDQTLAVYQQVLTSLPSQNVLQIANDLENLRDLLHLLAFSKSCSLPQTSGLQKPESLDGVLEASLYSTEVVALSRLQGSLQDILQQLDVSPEC",Kd,[2],0.7 nM
same,Kd,[3],1 nM
same,fold binding against the long form,[4],~10 fold
"unfused AP (alkaline phosphatase) (enzyme, UniProt P05187 23-511, looked up, Control; also called control AP) IIPVEEENPDFWNREAAEALGAAKKLQPAQTAAKNLIIFLGDGMGVSTVTAARILKGQKKDKLGPEIPLAMDRFPYVALSKTYNVDKHVPDSGATATAYLCGVKGNFQTIGLSAAARFNQCNTTRGNEVISVMNRAKKAGKSVGVVTTTRVQHASPAGTYAHTVNRNWYSDADVPASARQEGCQDIATQLISNMDIDVILGGGRKYMFRMGTPDPEYPDDYSQGGTRLDGKNLVQEWLAKRQGARYVWNRTELMQASLDPSVTHLMGLFEPGDMKYEIHRDSTLDPSLMEMTEAALRLLSRNPRGFFLFVEGGRIDHGHHESRAYRALTETIMFDDAIERAGQLTSEEDTLSLVTADHSHVFSFGGYPLRGSSIFGLAPGKARDRKAYTVLLYGNGPGYVLKDGARPDVTESESGSPEYRQQSAVPLDEETHAGEDVAVFARGPQAHLVHGVQEQTFIAHVMAFAACLEPYTACDLAPPAGTTDAAHPG",binding result,[5],no binding
same,binding result,[6],no binding
